From patent publication US20080075726A1 (VACCINEX, published 2008) come the findings set out here.

Sequences and labels used below:
B1: mAb 186 (antibody, V domains shown)
VH: QVTLKESGPALVKPTQTLTLTCTFSGFSLTTSGMCVSWIRQPPGKALEWLALIYWDDDKRYNPSLRSRLTITKDTSKNQVVLTMTNMDPVDTATYYCARSYDDYLYYALDYWGQGTLVT
VL: DVVMTQSPSSLSASVGGRVTITCRASQTIGDYLNWYQQKPGKAPRLLIYSASIVQSGVPSRFSASGSGTDFTLTISSLQPEDFATYSCQQSYSFPLTFGGGTKLEIK
B2: mAb 190 (antibody, V domains shown)
VH: B1 VH
VL: DIQMTQSPSSLSASVGDSVTITCRASQTISDFLNWYQQKPGKAPKLLIHASSNLQSGVPSRFSGSGSGTDFTLTISDLQPEDFATYSCQQTYSTLGTFGQGTRLE
B3: mAb 193 (antibody, V domains shown)
VH: B1 VH
VL: EIVLTQSPSSLSASVGDRVTISCRASQNIIDYLNWYQHKPGKVPTLLISGTSTLQSGVPSRFSGSGFGTDFTLTISSVQPEDVATYYCQQGHGTPLSFGGGTKLEIK
B4: mAb 187 (antibody, V domains shown)
VH: B1 VH
VL: EIVLTQSPSSLSASAGDTVTIACRASQGIRTALAWYQQKPGRNPKLLISEAYRLQSGVSPKFSGSGFGTDFTLTINSLQPEDFATYYCQQFNDFPLTFGGGTKLEIK
B5: mAb 185 (antibody, V domains shown)
VH: B1 VH
VL: DVVMTQSPSSVSASVGDRVTITCRASQVIDSWLHWYQREPGKAPKILIYAATTLQRGVPSRFSGSGFGTEFTLTISGLQPEDFATYFCQQGYSFPITFGQGTRLEIK
B6: mAb 188 (antibody, V domains shown)
VH: B1 VH
VL: DIQMTQSPSTLSASVGDRVTITCRASQSISRWLAWYQQKPGKAPKLLISKASSLEYGVPSRFSGSGSGTEFALTISNVQPEDFATYYCQQSFAVPLTFGGGTKLEIK
B7: mAb 192 (antibody, V domains shown)
VH: B1 VH
VL: DIVMTQSPSSLSASVGDRVTITCRASRNINTYLNWYQQKPGKAPKLLVHSASTLQSGAPSRFSGSGYGTEFTLIISSLQPDDFATYYCQQGYNTLTFGPGTKLE
B8: mAb 189 (antibody, V domains shown)
VH: B1 VH
VL: DIQMTQSPSSLSAFVGDGVTMTCWASQSINDYLNWYHQRPGEAPELLVFAASNLQIGVPSRFRGSGSETYFTLTINSLQPEDSGTYFCQQTSSFPLTFGGGTKLE
B9: mAb 275 (antibody, V domains shown)
VH: B1 VH
VL: DIQMTQSPSSLSAFVGDGVTMTCWASQSINDYLNWYHQRPGEAPELLVFAASNLQIGVPSRFRGSGSETYFTLTINSLQPEDSGTYFCQNGHSFPLTFGGGTKLEI
B10: mAb 202 (antibody, V domains shown)
VH: B1 VH with Y101H
VL: B2 VL
B11: mAb 1155 (antibody, V domains shown)
VH: QVTLKESGPTLVKPTQTLTLTCSFSGFSLSTSGVGVGWVRQPPGKALEWLAFIFWDDDKYYSPSLESRLTITKDTSKNQVVLTMTNMDPVDTATYYCARSADDYLYYSFDTWGQGTLVT
VL: B9 VL with N90H
B12: mAb 1154 (antibody, V domains shown)
VH: B11 VH
VL: B9 VL
B13: mAb 191 (antibody, V domains shown)
VH: B1 VH
VL: B1 VL with K39R, A64G, D70H
B14: mAb 1127 (antibody, V domains shown)
VH: B11 VH with A101Y, Y106M, S108A, F109L, T111Y
VL: B9 VL
B15: mAb 968 (antibody, V domains shown)
VH: B11 VH with A101Y, S108A, T111Y
VL: B9 VL
B16: mAb 1156 (antibody, V domains shown)
VH: B11 VH
VL: B9 VL with N90S
B17: mAb 770 (antibody, V domains shown)
VH: B11 VH with A101Y, S108A, F109L, T111Y
VL: B9 VL with N90H
B18: mAb 1192 (antibody, V domains shown)
VH: B11 VH with F54W, A101Y, S108A, F109L, T111Y
VL: B9 VL
B19: mAb 205 (antibody, V domains shown)
VH: B1 VH with Y101H
VL: B3 VL
B20: mAb 810 (antibody, V domains shown)
VH: B11 VH with A101Y, F109L, T111Y
VL: B9 VL
B21: mAb 1123 (antibody, V domains shown)
VH: B11 VH with S100F, A101Y, S108A, F109L, T111Y
VL: B9 VL
B22: mAb 774 (antibody, V domains shown)
VH: B11 VH with A101Y, S108A, F109L, T111Y
VL: B9 VL with N90S
B23: mAb 808 (antibody, V domains shown)
VH: B11 VH with A101Y, S108A, F109L, T111Y
VL: B9 VL with H92W
B24: mAb 201 (antibody, V domains shown)
VH: B1 VH with Y101H
VL: B8 VL
B25: mAb 963 (antibody, V domains shown)
VH: B11 VH with A101G, S108A, F109L, T111Y
VL: B9 VL
B26: mAb 765 (antibody, V domains shown)
VH: B11 VH with A101Y, S108A, F109L, T111Y
VL: B9 VL with G91A
B27: mAb 992 (antibody, V domains shown)
VH: B11 VH with A101Y, S108A, F109L
VL: B9 VL

Numbering of substitutions follows the chain as printed.

The target in the assay is T1, recombinant human IL-6 (human, UniProt P05231 30-212, limits assumed).
T1 construct: also called rhIL6; human recombinant IL-6
The experiment in a line: competition ELISA, rhIL-6 in solution against captured IL-6. As for the experimental part: Briefly, plates were coated with 2 μg/ml of mBE4 capture antibody in coating buffer, 100 μl per well. The plates were incubated overnight. Next, the plates were washed 3 times and tapped dry. The plates were then blocked with 200 μl per well of Assay Diluent or 10% FBS in PBS and incubated for 2 hours. […] The reaction was left at RT for 3-4 hours. […] Next, the plates were washed 3 times and tapped dry. […] The plates were incubated for 1-2 hours. The plates were washed 3 times and tapped dry. […] The plates were incubated at RT for 2 hours. (Therefore, any unbound mAb at this point will be measured by ELISA). Plates were then washed 5 times and tapped dry. 100 μl of detection Ab goat anti-human IgG F(ab)′2-HRP (Jackson lab) was added at 1:20,000 dilutions or 1:40,000 dilutions (depending on lot) and the plates were incubated for 1-2 hours. The plates were washed 7 times and tapped dry. Next, the Developer Substrate (equal parts of each reagent in the kit) was pre-mixed and allowed to warm to room temperature before use. Then 100 μl of Developer was added to each well. The plates were allowed to develop for 15 minutes un-sealed in a drawer in the dark. Finally, developing was stopped by adding 100 μl of 2N H₂SO₄ to each well and plates were read as Endpoint at 450 nm-[…].
The IC50 is the concentration that gives 50% inhibition. For B1, the IC50 was determined as 2 nM.
Turning to B2, the IC50 amounted to 1.9 nM.
As to B3, the IC50 is 2.7 nM.
Next, B4: 2.4 nM; B5: 1.5 nM.
In the case of B6, the IC50 was 1.4 nM.
Next, B7: 2.3 nM.
Next, B8: 0.72 nM; B9: 0.7 nM.
Next, B10: 2.4 nM; B11: 0.032 nM.
As for B12, the IC50 stood at 0.027 nM.
Consider B13, for which the IC50 was determined as 1.5 nM.
B14: the IC50 is 0.09 nM.
For the molecule B15, the IC50 stood at 0.053 nM.
In the case of B16, the IC50 came out at 0.023 nM.
Next, B17: 0.12 nM; B18: 0.029 nM; B19: 7.4 nM.
Next, B20: 0.22 nM; B21: 0.11 nM; B22: 0.16 nM.
Regarding B23, the IC50 was 0.08 nM.
As for B24, the IC50 worked out at 2 nM.
B25: the half-maximal inhibitory concentration (IC50) was found to be 0.09 nM.
Next, B26: 0.07 nM.
On to B27, for which the IC50 came out at 0.065 nM.
